These results are taken from US20210363269A1 (ALX ONCOLOGY, published 2021).

In assay [1] the target is T1, C57BL/6 mouse SIRP-α D1 domain (mouse (C57BL/6 strain), UniProt P97797 32-148).
T1 sequence: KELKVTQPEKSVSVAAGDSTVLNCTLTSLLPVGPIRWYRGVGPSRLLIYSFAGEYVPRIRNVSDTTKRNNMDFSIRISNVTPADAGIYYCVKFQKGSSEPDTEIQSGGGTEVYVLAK
Put plainly: SPR. The procedure, abridged:
(§1)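 Antibody clones in scFv-Fc format were captured from pre-filtered culture media onto anti-human IgG Fc, amine-coupled (about 4000 RU) on a GLC chip of a ProteOn XPR36 instrument. SIRP analytes were flowed in PBS pH 7.4 with 0.01% Tween-20 at 25° C. Data were double-referenced against interspot and buffer-blank responses. Dissociation rate constants (koff) were derived by fitting a 1:1 Langmuir model.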
On the technique in general: In SPR one partner is held on a chip, and binding of the other changes the refractive index at the surface.

Assay [2] concerns the target T2, human SIRPβ isoform 1 (human, UniProt O00241 30-148).
T2 construct: also called SIRPb; sirpb1
Nature of the assay: SPR. In outline:
as §1

In assay [3] the target is T3, human SIRP-α v2 D1 domain (human).
T3 construct: also called human v2
Put plainly: SPR, Langmuir fit. In outline: as §1

Assay [4] addresses T4, high affinity SIRP-α D1 variant CV1-3.
T4 chain: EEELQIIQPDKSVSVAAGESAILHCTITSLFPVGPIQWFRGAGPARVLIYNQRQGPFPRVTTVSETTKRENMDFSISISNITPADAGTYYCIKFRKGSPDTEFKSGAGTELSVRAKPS
Put plainly: SPR, Langmuir fit. The procedure, abridged: as §1

The target in assay [5] is T5, cynomolgus SIRP-α D1 domain (cyno1) (cynomolgus monkey, UniProt Q5TFQ8 30-148 (human entry), limits assumed).
T5 chain: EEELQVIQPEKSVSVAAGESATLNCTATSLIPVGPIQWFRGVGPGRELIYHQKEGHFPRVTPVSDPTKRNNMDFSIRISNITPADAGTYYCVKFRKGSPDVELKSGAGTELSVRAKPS
Nature of the assay: SPR, Langmuir fit. The procedure, abridged:
as §1

The target in assay [6] is T6, cynomolgus SIRP-α D1 domain (cyno2) (cynomolgus monkey, UniProt Q5TFQ8 30-148 (human entry), limits assumed).
T6 chain: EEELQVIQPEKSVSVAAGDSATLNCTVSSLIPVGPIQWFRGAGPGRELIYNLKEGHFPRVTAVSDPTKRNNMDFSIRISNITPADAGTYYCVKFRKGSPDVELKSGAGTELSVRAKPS
Nature of the assay: SPR, Langmuir fit. In outline:
as §1

The target of assay [7] is T7, mouse 129 SIRP-α D1 domain (mouse (129 strain), UniProt P97797 32-150).
T7 construct: also called m129
T7 chain: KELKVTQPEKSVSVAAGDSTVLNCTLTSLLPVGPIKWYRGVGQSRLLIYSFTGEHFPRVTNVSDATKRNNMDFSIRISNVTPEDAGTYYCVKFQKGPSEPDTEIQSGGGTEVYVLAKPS
Put plainly: SPR. The procedure, abridged:
as §1

The target of assay [8] is T8, human SIRPγ isoform 1 (human, UniProt Q9P1W8 29-147).
T8 construct: also called SIRPg; sirpg
Nature of the assay: SPR. In outline: as §1

Assay [9] addresses T9, human SIRP-α v1 D1 domain (human, UniProt P78324 31-149).
T9 construct: also called human v1
Nature of the assay: SPR, Langmuir fit. In outline:
as §1

Assay [10] has as its target T2, human SIRPβ isoform 1. Nature of the assay: SPR, Langmuir fit. In outline:
as §1

Assay [11] deals with T10, human SIRP-α v1 D1 domain (human, UniProt P78324 31-149).
T10 construct: also called human v1; human α v1
Put plainly: SPR, antibody immobilised on GLC chip. How it is done: (§2) All experiments were performed at 25° C. using a SPR-based ProteOn XPR36 biosensor (BioRad, Inc, Hercules, Calif.) equipped with GLC or NLC sensor chips. […] Purification was carried out by standard Protein A affinity column chromatography and eluted antibodies were stored in PBS buffer.
(§3) For the method using GLC chip, the analytes were injected and flowed over anti-SIRPα antibodies immobilized (˜1000 RUs) on GLC chips using Proteon™ Amine Coupling Kit. For the immobilization step, GLC chip was activated with EDAC/Sulpho-NHS 1:1 (Biorad) diluted 1/100 for 300 s at 25 μL/min. Anti-SIRPα antibodies were diluted to 80 nM concentration in 10 mM sodium acetate buffer pH 4.5 and immobilized to the chip at 30 μL/min for 50 s. Chip was inactivated with ethanolamine for 300 s at 25 μL/min. The analytes (e.g., SIRP-α from different species, SIRP-β, SIRP-γ) were injected in a “one-shot” kinetic mode at nominal concentrations of 100, 33, 11, 3.7, 1.2 and 0 nM. Association times were monitored for 90 s at 100 μL/min, and dissociation times were monitored for 1200 s. The surfaces were regenerated with a 2:1 v/v blend of Pierce IgG elution buffer/4M NaCl.

Assay [12] addresses T11, human SIRP-α v2 D1 domain (human).
T11 construct: also called human v2; human α v2
Nature of the assay: SPR, antibody immobilised on GLC chip. The procedure:
as §2, §3

The target of assay [13] is T12, cynomolgus SIRP-α D1 domain (SEQ ID NO:11) (cynomolgus, UniProt Q5TFQ8 30-148 (human entry), limits assumed).
T12 construct: also called cyno1
T12 chain: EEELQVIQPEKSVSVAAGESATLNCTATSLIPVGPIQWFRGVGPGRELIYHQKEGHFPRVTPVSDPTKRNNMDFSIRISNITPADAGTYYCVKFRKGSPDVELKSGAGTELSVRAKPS
Put plainly: SPR, antibody immobilised on GLC chip. The procedure: as §2, §3

The target of assay [14] is T13, human SIRPγ isoform 1 (human, UniProt Q9P1W8 29-147).
T13 construct: also called sirpg; sirp-g
Nature of the assay: SPR, antibody immobilised on GLC chip. How it is done:
as §2, §3

In assay [15] the target is T14, human SIRP-α v1 D1 domain (human, UniProt P78324 31-149).
T14 construct: biotinylated and captured on avidin in the ELISA; also called human v1
Nature of the assay: SPR, antibody immobilised on GLC chip. The procedure, abridged: (§4)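 Antibodies purified with Protein A were amine-coupled (~1000 RU) to a ProteOn XPR36 GLC chip, and SIRP analytes were injected one-shot at 100, 33, 11, 3.7, 1.2 and 0 nM in PBS pH 7.4 with 0.01% Tween-20 at 25° C. Each run used 90 s association at 100 μL/min followed by 1200 s dissociation. KD was derived as kd/ka from a global Langmuir fit to double-referenced sensorgrams.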

In assay [16] the target is T15, human SIRP-α v2 D1 domain (human).
T15 construct: biotinylated and captured on avidin in the ELISA; also called human v2
Nature of the assay: SPR, antibody immobilised on GLC chip. In outline:
as §4

T2 sequence (O00241 30-148 limits assumed): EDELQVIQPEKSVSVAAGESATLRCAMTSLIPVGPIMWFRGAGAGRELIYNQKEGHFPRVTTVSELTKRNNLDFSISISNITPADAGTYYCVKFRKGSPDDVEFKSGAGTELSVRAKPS

B1: S213 (scFv, V domains shown)
VH: DVQLVESGGGVVRPGESLRLSCEASGFTFRNYYMTWVRQAPGEGLEWVSTISDTGDTAYYADSVKGRFTISRDNSKNSLYLQMNSLRADDTAIYYCAKSWIWWTFFDYWGLGTLVTVSS
VL: ALTQPASVSANLGGTVEITCSGGNSNHYGWYQQKSPGSAPVTLIYADTNRPSNIPSRFSGSTSGSTTTLTITGVQAEDEAVYYCGGSSTGDGIFGAGTTLTVL
notes: also called clone 213
For the molecule B1, the binding result (in assay [1]; with human SIRPβ isoform 1 [2]) was “no binding (tested: Koff > 5 × 10^3 (legend))” in each case. The koff in assay [3] is 0.000685 s⁻¹; in assay [4] it was 0.00482 s⁻¹; in assay [5] it was 0.0026 s⁻¹; in [6], 0.00313 s⁻¹.

B2: S214 (scFv, V domains shown)
VH: DVQLVESEGGVVRPGESLRLSCEASGFTFRNSYMTWVRQAPGEGLEWVSTISDTGDTAYYADSVKGRFTISRDNSKNSLYLQMNSLRAEDTAIYYCAKSWIWWTFFDYWGLGTLVTVSS
VL: ALTQPASVSANLGGTVEITCSGGNSNHYGWYQQKSPGSAPVTLIYADTNRPSNIPSRFSGSTSGSTSTLTITGVQAEDEAVYYCGGSSTGDGIFGAGTTLTVL
Regarding B2, the binding result (in assay [1]; with human SIRPβ isoform 1 [2]) was “no binding (tested: Koff > 5 × 10^3 (legend))” throughout. For the same molecule, the koff in assay [3] worked out at 0.000677 s⁻¹; in [4] it was 0.00453 s⁻¹; in assay [5], 0.00351 s⁻¹; in assay [6] it was 0.00271 s⁻¹.

B3: S149 (scFv, V domains shown)
VH: DVQLVESGGGVVRPGESLRLSCAASGFTFSNFAMNWVRQAPGEGLEWVSLISVTATTYYADSVKGRFTISRDNSKNTLYLQMNSLRAEDTAVYYCAKVTWNNLFDYWGLGTLVTVSS
VL: EIVLTQSPGTLSLSPGERATLSCRASQPIDSYLAWYQQKPGQAPRLLIYNTVTRATGIPDRFSGSGSGTDFTLTINRLEPEDFAVYYCQHQYDWPPYIFGGGTKVEIK
notes: scFv-Fc format (VL-linker-VH on human IgG1 Fc)
With B3, the binding result (in assay [7]; in assay [1]; with human SIRPγ isoform 1 [8]) was “no binding (tested: Koff > 5 × 10^3 (legend))” in each case. In addition, the koff is 0.000544 s⁻¹ in assay [3], 0.00415 s⁻¹ in assay [9], 0.000331 s⁻¹ in the assay with human SIRPβ isoform 1 [10] and 0.00258 s⁻¹ in [6].

B4: S161 (scFv, V domains shown)
VH: DVQLVESGGGVVRPGESLRLSCAASGFTFSNFAMTWVRQAPGKGPEWVSLVSVTATTYYADSVKGRFTISRDNSKSTLYLQMNSLRAEDTAVYYCAKITWNNLFDYWGLGTLVTVSS
VL: EIVLTQSPGTLSLSPGERATLSCRASQTVGSKLAWYQQKPGQAPRLLIYDSSSRASGIPDRFSGSGSGTDFTLTISSLQSEDSAVYYCQQHNDWPPYTFGGGTKVEIK
notes: as for B3
With B4, the binding result (in [7]; in assay [1]; with human SIRPγ isoform 1 [8]) was “no binding (tested: Koff > 5 × 10^3 (legend))” throughout. In addition, the koff was determined as 0.000348 s⁻¹ in [3], 0.00337 s⁻¹ in [9], 0.00321 s⁻¹ in the assay with human SIRPβ isoform 1 [10] and 0.00215 s⁻¹ in assay [6].

B5: antibody 135 variant mut/mut (antibody, human IgG1, V domains shown)
VH: EVQLVESGGGVVQPGGSLRLSCAASGFSFSIYAVSWVRQAPGKGLEWVSTIGADDTYYADSVKGRFTISRDNSKNTLYLQMNSLRAEDTAVYYCAKDSTVGWSGDFFDYWGQGTLVTVSS
VL: EIVLTQSPATLSVSPGERVTLSCRASQNVRSDIAWYQQKPGQAPRLLIYAASSRDTGIPARFSGSGSGTDFTLTISSLQSEDFGVYYCQQYYDWPPFTFGGGTKVEIK
notes: Human IgG1 with L234A/L235A/G237A/N297A; Labels are in the order VL/VH
In the case of B5, the Kd came to 0.192 nM in assay [11], 0.0175 nM in [12], 0.127 nM in assay [13] and 0.733 nM with human SIRPγ isoform 1 [14].

B6: antibody 135 variant wt/mut (antibody, human IgG1, V domains shown)
VH: EVQLVESGGGVVQPGGSLRLSCAASGFSFSIYAVSWVRQAPGKGLEWVSTIGADDTYYADSVKGRFTISRDNSKNTLYLQMNSLRAEDTAVYYCAKDSTVGWSGDFFDYWGQGTLVTVSS
VL: EIVLTQSPATLSVSPGERVTFSCRASQNVRSDIAWYQQKPGQAPRLLIYAASSRDTGIPDRFSGSGSGTDFTLTISSLQSEDFGVYYCQQYYDWPPFTFGGGTKVEIK
notes: as for B5
With B6, the Kd in assay [11] worked out at 0.184 nM; in [12] it was 0.0197 nM; in [13], 0.125 nM; with human SIRPγ isoform 1 [14] it was 0.779 nM.

B7: 119 wt/wt_M34V (antibody, human IgG1, V domains shown)
VH: DVQLLESGGGVVQPGGSLRLSCAASGFSFSNFAVTWVRQAPGEGLEWVSTIGSGDTYYADSVKGRFTISRDNSKNTLYLQMNSLRAEDTAVYYCAKDSTVSWSGDFFDYWGLGTLVTVSS
VL: EIVLTQSPATLSVSPGERATFSCRASQNVKNDLAWYQQRPGQAPRLLIYAARIRETGIPERFSGSGSGTEFTLTITSLQSEDFAVYYCQQYYDWPPFTFGGGTKVEIK
notes: human IgG1 with L234A, L235A, G237A, N297A
With B7, the binding result in assay [15] and in assay [16] was “binds” each time.

B8: antibody 135 variant mut/wt (antibody, human IgG1, V domains shown)
VH: DVQLVESGGGVVRPGESLRLSCAASGFSFSIYAMSWVRQAPGEGLEWVSTIGADDTYYADSVKGRFTISRDNSKNTLYLQMNSLRAEDTAVYYCAKDSTVGWSGDFFDYWGLGTLVTVSS
VL: EIVLTQSPATLSVSPGERVTLSCRASQNVRSDIAWYQQKPGQAPRLLIYAASSRDTGIPARFSGSGSGTDFTLTISSLQSEDFGVYYCQQYYDWPPFTFGGGTKVEIK
notes: as for B5
In the case of B8, the dissociation constant Kd was 0.149 nM in assay [11], 0.0266 nM in [12], 0.102 nM in assay [13] and 0.522 nM in the assay with human SIRPγ isoform 1 [14].

B9: antibody 135 wt/wt (parental) (antibody, human IgG1, V domains shown)
VH: DVQLVESGGGVVRPGESLRLSCAASGFSFSIYAMSWVRQAPGEGLEWVSTIGADDTYYADSVKGRFTISRDNSKNTLYLQMNSLRAEDTAVYYCAKDSTVGWSGDFFDYWGLGTLVTVSS
VL: EIVLTQSPATLSVSPGERVTFSCRASQNVRSDIAWYQQKPGQAPRLLIYAASSRDTGIPDRFSGSGSGTDFTLTISSLQSEDFGVYYCQQYYDWPPFTFGGGTKVEIK
notes: Human IgG1 with L234A/L235A/G237A/N297A; Labels are in the order VL/VH; also called AB135a
Take B9: the Kd in assay [11] stood at 0.151 nM; in [12], 0.029 nM; in assay [13] it was 0.0969 nM; with human SIRPγ isoform 1 [14] it was 0.539 nM.

As usually defined, the koff is the rate constant with which the complex falls apart. Broadly, the Kd is the constant that tells how readily two partners part at equilibrium. Read a low Kd as tighter binding.
